Experimental data published in patent US20230242635A1 (published 2023).

Columns and labels:
[1] = target: canine FcRn complex (FcRn-α subunit and β-microglobulin) with c-terminal 6x His + BAP tag, amine-immobilized (Example 3) (canine); test: SPR (Biacore), FcRn amine-coupled on CM5, IgG flowed, pH 6, 15 C
[2] = target: canine FcRn complex (FcRn-α subunit and β-microglobulin), biotin labeled by BirA, captured on SA chip (Example 5) (canine); test: SPR (Biacore), biotinylated FcRn captured on SA chip, IgG flowed, pH 6, 15 C
[3] = target: canine FcRn complex (FcRn-α subunit and β-microglobulin) with c-terminal 6x His + BAP tag, amine-immobilized (Example 3) (canine); test: SPR (Biacore), FcRn amine-coupled on CM5, IgG flowed, pH 7.2, 15 C
[4] = target: IL-31 (target protein of mAb1, immobilized); test: cell-based or functional assay
[5] = target: IL-31 (target protein of mAb1, immobilized); test: SPR (Biacore T200), target amine-coupled on CM5, antibody flowed, 15 C, 1:1 model

B1: caninized anti-IL31 antibody 34D03 (mAb1), canine IgGB (65), N434H (antibody)
heavy: EVQLVESGGDLVKPGGSLRLSCVASGFTFSNYGMSWVRQAPGKGLQWVATISYGGSYTYYPDNIKGRFTISRDNAKNTLYLQMNSLRAEDTAMYYCVRGYGYDTMDYWGQGTLVTVSSASTTAPSVFPLAPSCGSTSGSTVALACLVSGYFPEPVTVSWNSGSLTSGVHTFPSVLQSSGLYSLSSMVTVPSSRWPSETFTCNVAHPASKTKVDKPVPKRENGRVPRPPDCPKCPAPEMLGGPSVFIFPPKPKDTLLIARTPEVTCVVVDLDPEDPEVQISWFVDGKQMQTAKTQPREEQFNGTYRVVSVLPIGHQDWLKGKQFTCKVNNKALPSPIERTISKARGQAHQPSVYVLPPSREELSKNTVSLTCLIKDFFPPDIDVEWQSNGQQEPESKYRTTPPQLDEDGSYFLYSKLSVDKSRWQRGDTFICAVMHEALHHHYTQESLSHSPGK
VL: EIVMTQSPASLSLSQEEKVTITCKASQSVSFAGTGLMHWYQQKPGQAPKLLIYRASNLEAGVPSRFSGSGSGTDFSFTISSLEPEDVAVYYCQQSREYPWTFGQGTKLEIK
With B1 the Kd [1] was 0.7 to 1.3 nM, the Kd [2] was 6.45 nM and the Kd [3] was 5000 nM. It also gave an IC50 (cell based potency assay) [4] of 0.99 nM and a Kd [5] of 0.373 nM.
